The assay addresses T1, human TNFR2 (human, UniProt P20333 23-461).
T1 construct: expressed on the surface of CHO cells; also called HuTNFR2; TNFRSF1B
T1 sequence: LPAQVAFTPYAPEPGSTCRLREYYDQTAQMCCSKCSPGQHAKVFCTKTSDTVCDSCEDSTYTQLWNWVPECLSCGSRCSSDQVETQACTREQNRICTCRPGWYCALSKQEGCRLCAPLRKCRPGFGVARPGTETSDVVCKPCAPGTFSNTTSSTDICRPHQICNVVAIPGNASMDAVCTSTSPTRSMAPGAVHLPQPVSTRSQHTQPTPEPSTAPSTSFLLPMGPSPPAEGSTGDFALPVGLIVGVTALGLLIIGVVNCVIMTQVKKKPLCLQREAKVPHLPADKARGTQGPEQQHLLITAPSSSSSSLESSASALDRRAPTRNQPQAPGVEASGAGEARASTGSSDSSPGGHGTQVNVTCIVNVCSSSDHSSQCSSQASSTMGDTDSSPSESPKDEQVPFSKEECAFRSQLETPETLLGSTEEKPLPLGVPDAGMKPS
Description: binding to human TNFR2 CHO cells.

Numbering of substitutions follows the chain as printed.

B1: IgG 1945 (antibody, name in Kabat numbering, V domains shown)
VH: QVQLVQSGAEVKKPGASVKVSCKVSGFSFPSSGVDWVRQAPGQGLEWLGVTRGEGSTHYNQKFQGRVTITKDTSKSTVYMELSSLRSEDTAVYYCASGEWDEGFVYWGQGTLVTVSS
VL: DIQLTQSPSFLSASVGDRVTITCKASQNVGTAVAWYQQKPGKAPKLLIYAASTLQSGVPSRFSGSGSGTEFTLTISSLQPEDFATYYCLQYSSYPLTFGGGTKVEIKR
notes: IgG
Regarding B1, the binding result was “no binding”.

B2: IgG 1911 (antibody, name in Kabat numbering, V domains shown)
VH: B1 VH with R52L, E54H
VL: B1 VL with L89Q
notes: IgG
On to B2, for which the binding result was “no binding”.

B3: IgG 1956 (antibody, name in Kabat numbering, V domains shown)
VH: B1 VH with R52K, E54Q, W100Q
VL: B1 VL with L89Q
notes: IgG
Consider B3, for which the binding result was “no binding”.

B4: IgG 1942 (antibody, name in Kabat numbering, V domains shown)
VH: B1 VH with R52W, E54V, W100R
VL: B1 VL with Y91K
notes: IgG
With B4, the binding result is “no binding”.

B5: IgG 1961 (antibody, name in Kabat numbering, V domains shown)
VH: B1 VH with R52F, G53Q, W100S, D101T
VL: B1 VL with L89Q
notes: IgG
As for B5, the binding result is on record as “no binding”.

B6: IgG 1913 (antibody, name in Kabat numbering, V domains shown)
VH: B1 VH with R52W, E54V, W100S, D101T
VL: B1 VL with L89Q
notes: IgG
On to B6, for which the binding result is “no binding”.

B7: IgG 1967 (antibody, name in Kabat numbering, V domains shown)
VH: B1 VH with R52L, E54H, W100R
VL: B1 VL with L89Q
notes: IgG
Turning to B7, the binding result is given as “no binding”.

B8: IgG 1916 (antibody, name in Kabat numbering, V domains shown)
VH: B1 VH with R52W, E54V, W100Q
VL: B1 VL with L89Q
notes: IgG
In the case of B8, the binding result is “no binding”.

B9: IgG 1952 (antibody, name in Kabat numbering, V domains shown)
VH: B1 VH with R52W, E54V, W100Q
VL: B1 VL
notes: IgG
Regarding B9, the binding result is “no binding”.

B10: IgG 1943 (antibody, name in Kabat numbering, V domains shown)
VH: B1 VH with R52W, E54V, W100Q
VL: B1 VL with Y91K
notes: IgG
For B10, the binding result is reported as “no binding”.

B11: IgG 1938 (antibody, name in Kabat numbering, V domains shown)
VH: B1 VH with R52L, E54H
VL: B1 VL with Y91K
notes: IgG
In the case of B11, the binding result was “no binding”.

B12: IgG 1959 (antibody, name in Kabat numbering, V domains shown)
VH: B1 VH with W100R
VL: B1 VL with L89Q
notes: IgG
As for B12, the binding result was “no binding”.

B13: IgG 1954 (antibody, name in Kabat numbering, V domains shown)
VH: B1 VH with R52K, E54Q, W100H
VL: B1 VL with L89Q
notes: IgG
In the case of B13, the binding result is recorded as “no binding”.

B14: IgG 1948 (antibody, name in Kabat numbering, V domains shown)
VH: B1 VH with R52H, E54S
VL: B1 VL
notes: IgG
On to B14, for which the binding result is listed as “no binding”.

B15: IgG 1957 (antibody, name in Kabat numbering, V domains shown)
VH: B1 VH with W100S, D101T
VL: B1 VL with L89Q
notes: IgG
Consider B15, for which the binding result was “no binding”.

B16: IgG 1910 (antibody, name in Kabat numbering, V domains shown)
VH: B1 VH with R52F, G53Q
VL: B1 VL with L89Q
notes: IgG
For B16, the binding result is on record as “no binding”.

B17: IgG 1936 (antibody, name in Kabat numbering, V domains shown)
VH: B1 VH
VL: B1 VL with Y91K
notes: IgG
B17: the binding result is “no binding”.

B18: IgG 1908 (antibody, name in Kabat numbering, V domains shown)
VH: B1 VH with R52K, E54Q
VL: B1 VL with L89Q
notes: IgG
As to B18, the binding result was “no binding”.

B19: IgG 1940 (antibody, name in Kabat numbering, V domains shown)
VH: B1 VH with R52W, E54V, W100S, D101T
VL: B1 VL with Y91K
notes: IgG
Regarding B19, the binding result is recorded as “no binding”.

B20: IgG 1937 (antibody, name in Kabat numbering, V domains shown)
VH: B1 VH with R52F, G53Q
VL: B1 VL with Y91K
notes: IgG
As to B20, the binding result was “no binding”.

B21: IgG 1958 (antibody, name in Kabat numbering, V domains shown)
VH: B1 VH with W100H
VL: B1 VL with L89Q
notes: IgG
Consider B21, for which the binding result is on record as “no binding”.

B22: IgG 1909 (antibody, name in Kabat numbering, V domains shown)
VH: B1 VH
VL: B1 VL with L89Q
notes: IgG
B22: the binding result is reported as “no binding”.

B23: IgG 1951 (antibody, name in Kabat numbering, V domains shown)
VH: B1 VH with R52W, E54V, W100R
VL: B1 VL
notes: IgG
With B23, the binding result is recorded as “no binding”.

B24: IgG 1963 (antibody, name in Kabat numbering, V domains shown)
VH: B1 VH with R52F, G53Q, W100R
VL: B1 VL with L89Q
notes: IgG
On to B24, for which the binding result is on record as “no binding”.

B25: IgG 1915 (antibody, name in Kabat numbering, V domains shown)
VH: B1 VH with R52W, E54V, W100R
VL: B1 VL with L89Q
notes: IgG
On to B25, for which the binding result is “no binding”.

B26: IgG 1955 (antibody, name in Kabat numbering, V domains shown)
VH: B1 VH with R52K, E54Q, W100R
VL: B1 VL with L89Q
notes: IgG
Regarding B26, the binding result is recorded as “no binding”.

B27: IgG 1953 (antibody, name in Kabat numbering, V domains shown)
VH: B1 VH with R52K, E54Q, W100S, D101T
VL: B1 VL with L89Q
notes: IgG
B27: the binding result is recorded as “no binding”.

B28: IgG 1941 (antibody, name in Kabat numbering, V domains shown)
VH: B1 VH with R52W, E54V, W100H
VL: B1 VL with Y91K
notes: IgG
Regarding B28, the binding result is reported as “no binding”.

B29: IgG 1969 (antibody, name in Kabat numbering, V domains shown)
VH: B1 VH with R52H, E54S, W100S, D101T
VL: B1 VL with L89Q
notes: IgG
Take B29: the binding result is reported as “no binding”.

B30: IgG 1947 (antibody, name in Kabat numbering, V domains shown)
VH: B1 VH with R52L, E54H
VL: B1 VL
notes: IgG
With B30, the binding result is given as “no binding”.

B31: IgG 1965 (antibody, name in Kabat numbering, V domains shown)
VH: B1 VH with R52L, E54H, W100S, D101T
VL: B1 VL with L89Q
notes: IgG
Regarding B31, the binding result is listed as “no binding”.

B32: IgG 1946 (antibody, name in Kabat numbering, V domains shown)
VH: B1 VH with R52F, G53Q
VL: B1 VL
notes: IgG
On to B32, for which the binding result was “no binding”.

B33: IgG 1914 (antibody, name in Kabat numbering, V domains shown)
VH: B1 VH with R52W, E54V, W100H
VL: B1 VL with L89Q
notes: IgG
On to B33, for which the binding result was “no binding”.

B34: IgG 1966 (antibody, name in Kabat numbering, V domains shown)
VH: B1 VH with R52L, E54H, W100H
VL: B1 VL with L89Q
notes: IgG
For the molecule B34, the binding result was “no binding”.

B35: IgG 1944 (antibody, name in Kabat numbering, V domains shown)
VH: B1 VH with R52K, E54Q
VL: B1 VL
notes: IgG
For B35, the binding result is given as “no binding”.

B36: IgG 1962 (antibody, name in Kabat numbering, V domains shown)
VH: B1 VH with R52F, G53Q, W100H
VL: B1 VL with L89Q
notes: IgG
For B36, the binding result is on record as “no binding”.

B37: IgG 1912 (antibody, name in Kabat numbering, V domains shown)
VH: B1 VH with R52H, E54S
VL: B1 VL with L89Q
notes: IgG
For the molecule B37, the binding result is given as “no binding”.

B38: IgG 1970 (antibody, name in Kabat numbering, V domains shown)
VH: B1 VH with R52H, E54S, W100H
VL: B1 VL with L89Q
notes: IgG
Regarding B38, the binding result is “no binding”.

B39: IgG 1949 (antibody, name in Kabat numbering, V domains shown)
VH: B1 VH with R52W, E54V, W100S, D101T
VL: B1 VL
notes: IgG
Take B39: the binding result is “no binding”.

B40: IgG 1950 (antibody, name in Kabat numbering, V domains shown)
VH: B1 VH with R52W, E54V, W100H
VL: B1 VL
notes: IgG
Consider B40, for which the binding result is given as “no binding”.
